Measured values as given in the supplement of paper PMC10126150.
± gives the standard deviation of the averaged measurements.

System: ATP
Assay: switch fluorescence ratio, 500 uM ATP over buffer (Cy3 cluster intensity, sum of 5 cycles each) (fold (ratio)); higher = stronger signal-on switching upon ATP binding; sequences stand for … in TCGTCGGCAGCGTCAGATGTGTATAAGAGACAGTTTTTTTTTTTTTTTTTTTTTTTTT…TC
Settings: aptamer strand: ATP DNA aptamer (quencher-CACCTGGGGGAGTATTGCGGAGGAAGG + anchor), 100 nM annealed; ATP concentration: 500 uM
How it was run: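 Clusters with intensities outside 100-1000 RFU were excluded. The remaining Cy3-labelled switching-strand clusters on a modified Illumina MiSeq flow-cell had been annealed to 100 nM quencher-labelled ATP aptamer and imaged in selection buffer, then after 15 min with 500 uM ATP at 22 °C, for five cycles separated by NaOH stripping and re-annealing. The fluorescence ratio, averaged per switch-domain sequence, is each cluster's summed target-cycle Cy3 intensity over its summed buffer-cycle Cy3 intensity.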
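Further: ATP exposure 15 min at 22 °C before imaging.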

Sequence | switch fluorescence ratio
TTACAGCCTG | 1 ± 0.04
TTACAGGGAG | 1.02 ± 0.01
TTACAGTCGT | 1.03 ± 0.022
TTACATGAAT | 1.04 ± 0.033
TTACATGTCC | 1.039 ± 0.0089
TTACATTTTA | 1.02 ± 0.015
TTACCACAGC | 1.05 ± 0.041
TTACCAGATT | 0.982 ± 0.033
TTACCATCCT | 1.19 ± 0.029
TTACCCAGAG | 1.1 ± 0.064
TTACCCTGGG | 1.07 ± 0.074
TTACCGACGG | 1.1 ± 0.069
TTACCTCCGT | 2.19 ± 0.14
TTACCTTTGT | 1.05 ± 0.024
TTACGAGGCG | 1.004 ± 0.0032
TTACGCGAAA | 2.57 ± 2.1
TTACGGAGGG | 1.02 ± 0.038
TTACGGCTGC | 1.03 ± 0.058
TTACGGGCAC | 1.18 ± 0.012
TTACGGGGGT | 1.017 ± 0.01
TTACGGGGTT | 0.988 ± 0.035
TTACGGTGAC | 1.17 ± 0.059
TTACGGTTTT | 1.01 ± 0.023
TTACGTGTGA | 1.05 ± 0.073
TTACGTTCTT | 1.048 ± 0.0096

Sequence | switch fluorescence ratio
TTACTACGTA | 1.04 ± 0.059
TTACTCGGGA | 1.04 ± 0.012
TTACTCGGGC | 0.999 ± 0.019
TTACTCTTCT | 0.972 ± 0.04
TTACTGAAAA | 1.04 ± 0.025
TTACTGAACT | 1.19 ± 0.025
TTACTGGGGA | 1.04 ± 0.011
TTACTTATCT | 1.02 ± 0.033
TTACTTCGTA | 1.06 ± 0.07
TTACTTTGGG | 0.9892 ± 0.0065
TTACTTTTGT | 1.021 ± 0.0039
TTAGAAAGTT | 1.03 ± 0.091
TTAGAAATAT | 1.01 ± 0.016
TTAGAAATTT | 1.01 ± 0.02
TTAGAATTAG | 1 ± 0.017
TTAGACAAGG | 0.95377 ± 0.00078
TTAGACACAA | 1.01 ± 0.046
TTAGACTCTG | 1.05 ± 0.071
TTAGACTTTT | 1.03 ± 0.012
TTAGAGAGCG | 1.018 ± 0.0096
TTAGAGTATA | 1 ± 0.00038
TTAGAGTGCA | 1.02 ± 0.019
TTAGATATTT | 0.98 ± 0.024
TTAGATCGCC | 0.969 ± 0.027
TTAGATCGGG | 0.989 ± 0.011

Sequence | switch fluorescence ratio
TTAGATGAAT | 1 ± 0.033
TTAGCACGTC | 1.076 ± 0.0074
TTAGCCCATG | 1.03 ± 0.029
TTAGCGAAGG | 1.003 ± 0.0046
TTAGCGCTTT | 0.9853 ± 0.0082
TTAGCGGCTG | 0.9585 ± 0.0026
TTAGCGGGAT | 1.01 ± 0.044
TTAGCGTGGG | 0.99 ± 0.023
TTAGCGTTGT | 0.96 ± 0.028
TTAGCTGGTG | 1.07 ± 0.067
TTAGCTGTGC | 1.02 ± 0.067
TTAGCTGTTT | 0.995 ± 0.035
TTAGCTTGGT | 0.999 ± 0.043
TTAGCTTGTA | 1.07 ± 0.088
TTAGCTTTTT | 1.01 ± 0.054
TTAGGAATTT | 1.05 ± 0.075
TTAGGACGAT | 0.997 ± 0.051
TTAGGAGAGC | 0.979 ± 0.014
TTAGGAGATG | 0.9802 ± 0.0059
TTAGGAGGGA | 0.9949 ± 0.0064
TTAGGATAAT | 1.031 ± 0.0072
TTAGGCCGGC | 0.988 ± 0.11
TTAGGCGAGG | 1.08 ± 0.16
TTAGGCGGCA | 0.974 ± 0.034
TTAGGCGGGA | 0.995 ± 0.046

Sequence | switch fluorescence ratio
TTAGGCTACT | 1.01 ± 0.035
TTAGGGAAGG | 0.993 ± 0.02
TTAGGGAATG | 1 ± 0.07
TTAGGGACAG | 0.987 ± 0.027
TTAGGGACGC | 1.08 ± 0.025
TTAGGGAGGG | 0.998 ± 0.032
TTAGGGCCTA | 0.9844 ± 0.0097
TTAGGGGATG | 1.026 ± 0.0098
TTAGGGGCGA | 0.994 ± 0.012
TTAGGGGGAA | 1.01 ± 0.025
TTAGGGGGG | 1.01 ± 0.026
TTAGGGGGTT | 1.04 ± 0.062
TTAGGGTAGG | 0.97 ± 0.039
TTAGGGTATG | 1.03 ± 0.029
TTAGGGTGAT | 0.974 ± 0.059
TTAGGGTGTT | 1 ± 0.07
TTAGGGTTCC | 0.992 ± 0.035
TTAGGTAGGG | 0.988 ± 0.028
TTAGGTCATG | 0.9877 ± 0.0034
TTAGGTCTTC | 1.02 ± 0.014
TTAGGTGCAA | 1.17 ± 0.11
TTAGGTTTTT | 1.08 ± 0.19
TTAGTAAAAT | 1.01 ± 0.017
TTAGTAAACA | 1.01 ± 0.049
TTAGTAAGGA | 1.009 ± 0.0086
